B1: Bovine lipoprotein lipase (enzyme, UniProt P11151 29-478, looked up)
chain: DRITGGKDFRDIESKFALRTPEDTAEDTCHLIPGVTESVANCHFNHSSKTFVVIHGWTVTGMYESWVPKLVAALYKREPDSNVIVVDWLSRAQQHYPVSAGYTKLVGQDVAKFMNWMADEFNYPLGNVHLLGYSLGAHAAGIAGSLTNKKVNRITGLDPAGPNFEYAEAPSRLSPDDADFVDVLHTFTRGSPGRSIGIQKPVGHVDIYPNGGTFQPGCNIGEALRVIAERGLGDVDQLVKCSHERSVHLFIDSLLNEENPSKAYRCNSKEAFEKGLCLSCRKNRCNNMGYEINKVRAKRSSKMYLKTRSQMPYKVFHYQVKIHFSGTESNTYTNQAFEISLYGTVAESENIPFTLPEVSTNKTYSFLLYTEVDIGELLMLKLKWISDSYFSWSNWWSSPGFDIGKIRVKAGETQKKVIFCSREKMSYLQKGKSPVIFVKCHDKSLNRKSG
notes: lipoprotein lipase (LPL), bovine, purified from bovine milk; In the RICS experiments 10 nM of the LPL carried ATTO610 (NHS ester labelling) and 190 nM was unlabelled; it says that most experiments were done with bovine LPL; also called bLPL; bovine LPL; source: purified from bovine milk
B2: Full-length ANGPTL4 (natural protein)
chain: GPVQSKSPRFASWDEMNVLAHGLLQLGQGLREHAERTRSQLSALERRLSACGSACQGTEGSTDLPLAPESRVDPEVLHSLQTQLKAQNSRIQQLFHKVAQQQRHLEKQHLRIQHLQSQFGLLDHKHLDHEVAKPARRKRLPEMAQPVDPAHNVSRLHRLPRDCQELFQVGERQSGLFEIQPQGSPPFLVNCKMTSDGGWTVIQRRHDGSVDFNRPWEAYKAGFGDPHGEFWLGLEKVHSITGDRNSRLAVQLRDWDGNAELLQFSVHLGGEDTAYSLQLTAPVAGQLGATTVPPSGLSVPFSTWDQDHDLRRDKNCAKSLSGGWWFGTCSHSNLNGQYFRSIPQQRQKLKKGIFWKTWRGRYYPLQATTMLIQPMAAEAAS
B3: Recombinant N-terminal domain of ANGPTL4 (nANGPTL4^26-184) (domain or fragment, UniProt Q9BY76 26-184, looked up)
chain: GPVQSKSPRFASWDEMNVLAHGLLQLGQGLREHAERTRSQLSALERRLSACGSACQGTEGSTDLPLAPESRVDPEVLHSLQTQLKAQNSRIQQLFHKVAQQQRHLEKQHLRIQHLQSQFGLLDHKHLDHEVAKPARRKRLPEMAQPVDPAHNVSRLHRL
notes: angiopoietin-like protein 4 (ANGPTL4), N-terminal domain, residues 26-184

Columns and labels:
[1] = biological target: T1, Bovine serum albumin (bovine, UniProt P02769 25-607); experiment: not stated; equilibrium dissociation constant of the LPL-albumin complex as given in the introduction; experiment not named
T1 construct: serum albumin, bovine; also called BSA; source: bought: Sigma Aldrich (#A7906)
T1 sequence (P02769 25-607): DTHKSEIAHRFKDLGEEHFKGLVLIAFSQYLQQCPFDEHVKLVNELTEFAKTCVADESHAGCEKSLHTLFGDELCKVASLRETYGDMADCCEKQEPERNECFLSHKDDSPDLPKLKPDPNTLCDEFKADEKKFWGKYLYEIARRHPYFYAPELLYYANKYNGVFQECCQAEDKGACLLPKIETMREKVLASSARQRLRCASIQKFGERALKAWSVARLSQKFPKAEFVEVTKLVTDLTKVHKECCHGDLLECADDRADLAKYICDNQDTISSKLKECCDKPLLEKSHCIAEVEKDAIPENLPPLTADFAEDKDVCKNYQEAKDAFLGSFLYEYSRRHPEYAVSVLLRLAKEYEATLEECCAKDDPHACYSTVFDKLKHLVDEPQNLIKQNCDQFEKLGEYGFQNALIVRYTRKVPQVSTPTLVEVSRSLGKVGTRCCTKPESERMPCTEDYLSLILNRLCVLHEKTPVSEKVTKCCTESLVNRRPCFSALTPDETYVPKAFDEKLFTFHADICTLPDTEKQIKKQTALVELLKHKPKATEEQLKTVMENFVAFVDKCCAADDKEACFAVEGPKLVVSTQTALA

[2] = biological target: T1, Bovine serum albumin; experiment: ITC; 752 μM BSA in the syringe titrated (38 injections) into 1.695 μM bLPL with 10 IU/ml heparin; 20 mM HEPES, 150 mM NaCl, pH 7.4; 25°C; apparent KD of the initial binding phase; settings: both partners purified
[3] = biological target: B1
[4] = biological target: T2, Human serum albumin (human, UniProt P02768 25-609); experiment: SPR; nANGPTL4 immobilised; HSA at various concentrations flowed over; plateau values plotted against HSA concentration after subtracting non-specific binding; settings: both partners purified
T2 construct: serum albumin, human; also called HSA
T2 sequence (P02768 25-609): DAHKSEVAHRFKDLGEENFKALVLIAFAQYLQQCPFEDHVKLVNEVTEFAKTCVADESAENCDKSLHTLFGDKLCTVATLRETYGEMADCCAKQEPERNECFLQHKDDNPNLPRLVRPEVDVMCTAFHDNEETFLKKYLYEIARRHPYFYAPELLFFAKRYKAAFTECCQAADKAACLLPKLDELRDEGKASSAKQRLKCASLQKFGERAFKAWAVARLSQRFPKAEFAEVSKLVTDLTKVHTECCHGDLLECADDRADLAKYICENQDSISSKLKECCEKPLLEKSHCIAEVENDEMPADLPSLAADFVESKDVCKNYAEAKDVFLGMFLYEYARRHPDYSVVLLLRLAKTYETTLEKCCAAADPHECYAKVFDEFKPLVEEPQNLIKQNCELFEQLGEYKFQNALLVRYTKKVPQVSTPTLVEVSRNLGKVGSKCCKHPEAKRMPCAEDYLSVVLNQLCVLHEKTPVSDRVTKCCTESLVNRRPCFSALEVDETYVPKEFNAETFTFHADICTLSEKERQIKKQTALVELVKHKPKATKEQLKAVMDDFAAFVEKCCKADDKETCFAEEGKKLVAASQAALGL

[5] = biological target: B1; experiment: cell-based or functional assay

Binder: B1
Kd [1]: 30 to 70 µM
Kd [2]: 12.6 µM

Binder: B2
residual LPL activity (ITC, human plasma) after 130 min of 200 nM LPL with 1 μM ANGPTL4 in the presence of both heparin and BSA [3]: 35%
residual LPL activity (ITC, human plasma) after 130 min of 200 nM LPL with 1 μM ANGPTL4 in the presence of heparin or BSA alone [3]: 55%

Binder: B3
Kd [4]: 500 ± 51 µM
inactivation rate constant (ki) of LPL by 100 nM nANGPTL4 during lipolysis of CM/VLDL (ITC), at 10 or 50 mg/ml BSA against 2 mg/ml BSA [5]: ~1.6 fold
